According to PMC12153337, “A temperature-driven DNA discrimination strategy to distinguish E. coli DNA and phage 5hmC-modified DNA” (Nucleic Acids Research, 2025):
Positions count from the first letter of the chain named. Names may count otherwise.

How the values were obtained:
[1] = target: the molecule itself; test: native gel or EMSA; native gel electrophoresis of purified DexA after SEC, room temperature
[2] = target: the molecule itself; test: SEC; Superdex 200 HiLoad 26/600, PBS buffer, room temperature 22°C; size estimated from the elution volume
[3] = target: the molecule itself; test: cryo-EM structure; single-particle cryo-EM, 2D classification of conformers; 5 μM, incubated at 37°C for 1 h
[4] = target: the molecule itself; test: SEC-MALS; Superdex 75 10/300 GL, 0.5 ml/min, 25°C

B1: bacteriophage T4 exonuclease DexA (enzyme, UniProt P04536 1-227, looked up)
chain: MFDFIIDFETMGSGEKAAVIDLAVIAFDPNPEVVETFDELVSRGIKIKFDLKSQKGHRLFTKSTIEWWKNQSPEARKNIAPSDEDVSTIDGIAKFNDYINAHNIDPWKSQGWCRGMSFDFPILVDLIRDIQRLNGVSENELDTFKLEPCKFWNQRDIRTRIEALLLVRDMTTCPLPKGTLDGFVAHDSIHDCAKDILMMKYALRYAMGLEDAPSEEECDPLSLPTKR
notes: DexA (dexA gene product), 3'-5' exonuclease of bacteriophage T4, amplified from the T4 genome; 26.0 kDa per monomer; Exists in a dimer-tetramer equilibrium that depends on temperature, so copies is left empty; also called ExoD; wild-type DexA; source: E. coli BL21(DE3), pET46, purified (Ni-NTA, SEC)
[1]
  stoichiometry N: 4
[2]
  stoichiometry N: ≥ 2
[3]
  stoichiometry N: 2

B2: DexA^D181A/S72A (enzyme, bacteriophage T4, UniProt P04536 1-227, looked up)
chain: B1 chain with S72A, D181A
notes: DexA of bacteriophage T4 with D181A and S72A, made by site-directed mutagenesis of the dexA plasmid; Full length is said of the native protein only; the mutant was made from the same plasmid; also called contact 1 mutant; source: E. coli BL21(DE3), pET46, purified (Ni-NTA, SEC)
[4]
  binding result: binds

B3: DexA^S87A/D90A (enzyme, bacteriophage T4, UniProt P04536 1-227, looked up)
chain: B1 chain with S87A, D90A
notes: DexA of bacteriophage T4 with S87A and D90A, made by site-directed mutagenesis of the dexA plasmid; Full length is said of the native protein only; the mutant was made from the same plasmid; also called dimeric mutant; contact 2 mutant; source: E. coli BL21(DE3), pET46, purified (Ni-NTA, SEC)
[4]
  stoichiometry N: 2
